{
  "source": "patent US9206239B2",
  "about": "“Treatment of cancers with immunostimulatory HIV Tat derivative polypeptides” (PIN Pharma, Inc., priority 2009, dated 2015)",
  "key": {"4T1 breast tumor cells [1]": {"system": "4T1 breast tumor cells", "experiment": "4T1 breast tumor growth in BALB/c mice", "type": "in vivo", "source_text": "Female BALB/c mice 6 to 8 weeks old were purchased from the Jackson Laboratory (Bar Harbor, […].). Mice were acclimated for at least 1 week before use. Mice were kept in pathogen-free conditions at the Animal Maintenance Facility of the Columbia University of Medical Center and all experiments were approved by the Institutional Animal Care and Use Committee of Columbia University of Medical Center.\n(§1) 4T1 cells, a 6-thioguanine-resistant cell line derived from a BALB/c spontaneous mammary carcinoma was obtained from ATCC; TS/A, a murine adenocarcinoma cell line was provided by Dr. Sandra Demaria (Demaria S. et al. Clin Cancer Res. 11:728-34, 2005); and SM1, the BALB/C-derived mammary carcinoma was kindly was provided by Dr. James Allison, University of California, Berkeley. All tumor cell lines were cultured in DMEM, supplemented with 2 mM L-glutamine, 10 mM HEPES, 150 units/ml penicillin/streptomycin, 10% heat-inactivated FCS (Invitrogen), 50 μM 2-mercaptoethanol (Sigma), and 50 mg/L gentamicin (Lanza).\n(§2) BALB/c were injected (SC) with 1×10^4 4T1, 1×10^5 TS/A or 2×10^5 SM1 cells, respectively, in the left mammary pad on day 0. Immunotherapy was performed by directly injecting a Tat derivative into the right flank at 0, 7, 12, and 17 days after establishment of tumors. The control group received PBS injection. […] Tumor burden (tumor volume) was measured and recorded three times weekly. Animals were sacrificed when tumors reached a volume of 15 mm in diameter and the tumors harvested and weighed.\nThe therapeutic effect of systemic administration of synthetic, Tat-derived compositions in murine models of breast cancer was investigated. To compare the relative protection conferred by a small panel of different derivatives against primary breast tumor growth, female BALB/c mice were injected with 1×10^4 4T1 breast tumor cells SC into the mammary pad, and then treated with 400 ng partially-purified Tat derivatives at day 0, 7, 14 and 21 (SC injection in PBS) into the draining axillary lymph nodes."}, "TS/A breast cancer cells": {"system": "TS/A breast cancer cells", "experiment": "TS/A breast carcinoma model", "type": "in vivo, mice", "conditions": "for primary anti-cancer difference vs control: p<0.01", "procedure": "as §1, §2"}, "SM1 breast cancer cells": {"system": "SM1 breast cancer cells", "experiment": "SM1 breast carcinoma model", "type": "in vivo, mice", "procedure": "as §1, §2"}, "[2]": {"experiment": "Toxicity observation in treated mice", "type": "in vivo", "conditions": "SC or IV administration of 40 ng, multiple trials and dosing schedules"}, "4T1 breast tumor cells [3]": {"system": "4T1 breast tumor cells", "experiment": "4T1 breast tumor growth in BALB/c mice", "type": "in vivo", "remark": "listed apart in the source"}},
  "note": "Entries after “also recorded” stand apart in the source; their conditions may differ.",
  "data": [
    {"molecule": "Nani-P2: HIV Tat derivative polypeptide, SEQ ID NO: 3; derivatized Tat amino terminus from an African Green Monkey variant SIV (protein, Nani-P2 modified HIV Tat sequence, derivatized Tat amino terminus from an African Green Monkey variant SIV) MDPKGEEDQDVSHQDLIKQYRKPRTACNNCYCKKCCFHCYACFLRKGLGITYHAFRTRRKKIASADRIPVPQQSISIRGRDSQTTQESQKKVEEQAKANLRISRKNLGDETRGPVGAGN", "values": [
      {"measurement": "tumor burden compared to control mice receiving PBS", "setting": "4T1 breast tumor cells [1]; 400 ng partially-purified derivative SC day 0, 7, 14, 21, apparent from day 15 (p<0.05)", "result": "significantly reduced tumor burden"},
      {"measurement": "decrease of tumor burden on average", "setting": "4T1 breast tumor cells [1]; SC therapy initiated on day 0 after tumor cell injection", "result": 53, "unit": "%"},
      {"measurement": "difference in primary tumor burden between Nani-P2 and Nani-P1-treated tumors", "setting": "4T1 breast tumor cells [1]; day 21 (final dosing), 400 ng SC, p<0.01", "result": 18, "unit": "mm^3"},
      {"measurement": "anti-tumor efficacy on increasing the dose", "setting": "4T1 breast tumor cells [1]; dose increased to 400 ng and 2 μg (data not shown)", "result": "no further anti-tumor efficacy"},
      {"measurement": "suppression of growth", "setting": "TS/A breast cancer cells; 0.4 ng SC", "result": "~50", "unit": "%"},
      {"measurement": "primary anti-cancer difference vs control", "setting": "TS/A breast cancer cells; 40 ng SC", "result": "highly significant"},
      {"measurement": "total remission rate", "setting": "TS/A breast cancer cells; at 30 days", "result": 40, "unit": "%"},
      {"measurement": "primary anti-cancer difference vs control", "setting": "TS/A breast cancer cells; lowest dose (0.4 ng SC)", "result": "highly significant"},
      {"measurement": "difference in primary tumor growth between control and treated animals", "setting": "SM1 breast cancer cells; 40 ng SC days 0, 7, 14, 21, p<0.01", "result": "highly statistically significant"},
      {"measurement": "animals remaining in remission", "setting": "SM1 breast cancer cells; 28 days following implant, one week after termination of the regimen", "result": 40, "unit": "%"},
      {"measurement": "animals in which tumor growth was suppressed", "setting": "SM1 breast cancer cells; for 16 days, 40 ng SC days 0, 7, 14, 21", "result": 100, "unit": "%"},
      {"measurement": "toxicity", "setting": "[2]", "result": "no toxicity was observed"},
      {"measurement": "difference in mean tumor volume vs control group", "setting": "4T1 breast tumor cells [3]; 4 ng or 40 ng per mouse, four times over 21 days", "result": "highly significant"},
      {"measurement": "primary tumor burden vs PBS control, established tumors", "setting": "4T1 breast tumor cells [3]; 40 ng IV weekly for three weeks from day 14, trial 50 days, p<0.01", "result": "statistically significant benefit in primary tumor suppression; also recorded: highly significant"},
      {"measurement": "animals with complete remission, disease-free", "setting": "4T1 breast tumor cells [3]; 40 ng IV weekly x3 from day 14, at 50 days", "result": "1/10 and One of 10"},
      {"measurement": "mice with regression of tumor at the initial treatment", "setting": "4T1 breast tumor cells [3]; 40 ng IV, initial treatment on day 14", "result": "7/10"},
      {"measurement": "decrease of tumor burden on average at maximal effect", "setting": "4T1 breast tumor cells [3]; SC therapy begun on day 13, tumors about 5 mm in diameter", "result": 52, "unit": "%"},
      {"measurement": "breast tumor growth inhibitory effect on 4T1 tumors", "setting": "4T1 breast tumor cells [3]; highly-purified, SC, 0.4 ng to 40 ng per dose", "result": "dose-dependent"}
    ]}
  ]
}
